The text below walks through data of the domain aggregation screens of Martell et al. (2025).
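Also: 20 min heating vs room temperature control held 20 min.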

This data set is described as follows: soluble fraction after stress (log2 fold change); higher = more stays soluble; pooled small domains, quantitative proteomics. The settings on record: stress: 75 degC.
As for “HMSGEVLTAVVPETASGERLDKVLPQIFPPYSRSQLQTWLKEGRVTLDREIPAARLAVIGGETLRLEVPSL”, the “soluble fraction (log2)” value was -0.112.

On to “HMSGFFVYPNPAKSNIIHFPNKKSFYIYDTSGRLLIEGKGKDFIDVSTLDRGVYLLKTFENDIVKIII”, for which the “soluble fraction (log2)” value was -1.1.

Regarding “HMSGGIVRLAVKPWGEVFVDGASRGITPPLKQLTLDAGVHRIEIRNPAGPSWTKDVDVVAGQPTTVSHRF”, the “soluble fraction (log2)” value is -0.494.

As to “HMSGITDIITDGKATSRPVVVTDGGHIRVLSPYTSFAIYTLGGMSLPTESRLEPGIYIVVVDSNAVKVAV”, the “soluble fraction (log2)” value was -1.59.

With “HMSGLGELTPRELEVLELMAQGLSNSQIAGRLFLSGAAVAKHVSSIFSKLGFEPGDENRRVRAILAFLNR”, the “soluble fraction (log2)” value was -1.41.

Take “HMSGLLTTSKLAQKHKMKTEPMLEKLTAAGYLEWRDDKHSLTEQGKKAGGQFKTGRFGAYFLWPEDLV”: the “soluble fraction (log2)” value was -0.116.

Regarding “HMSGPDGLTEREIEVLRLLASGLSNRAIGERLYISTNTAANHVRSILLKTGAANRTQAAMYAADHEML”, the “soluble fraction (log2)” value is -1.66.

For “HMSGPFTELTPREREILSHLAEGQSNKVIARHLQISDGTVKLHVKAILRKLEVHSRVEAAVMAVEHGV”, the “soluble fraction (log2)” value is -2.18.

Regarding “HMSGPMVPNVVGLSEEMARALLSDYSITIKHAHDGVIPKDRVASQLPLATTHAKVGSSVVLTIS”, the “soluble fraction (log2)” value is -0.557.

For “HMSGQLTEEQVKQIVTTAVKNSSGSTLTAAEVSRIVSTAVANNLTADQVKTVVNNALAGITTDISTLKA”, the “soluble fraction (log2)” value came out at 0.124.

In the case of “HMSGSFDVTLDYLNSLRNLYPAIDVEQEFRKMYAWLDSNPKNRKTERGIKRFITGWLGRAQDKAP”, the “soluble fraction (log2)” value is -1.31.

For the sequence “HMSGSLLQTRQRLQALTDLGHYKGDLAAAWGPEAIEALKRAQAALGITVDGKWGPETEDAIQVALQAQT”, the “soluble fraction (log2)” value is -0.00363.

For the sequence “HMSGSPREQAESEYRKAIAAVNQGRVSEATESLRAALRLDAFQVAARQLLVKLLLEAKNQDEAIQVLR”, the “soluble fraction (log2)” value is -0.986.

“HMSGTMYATAEVNVRSTYSSDGTIYGTLSKGTAVEITGTTDNGWVRVKYNGTTAYVYADYLSWKAP”: the “soluble fraction (log2)” value was -2.41.

For “HMSGYAIVNNQPGRTLNLRNSPSQSNNIIGQIPSGTRLQLISRGETWSEVIFQTTRGFVMSSFLRFET”, the “soluble fraction (log2)” value is -2.38.

Consider “HMSHGNAALTPRQRLRLARLVVDDQWSVSAAAEFFRVSYPTAAKWARRYVELGPAGMADRSS”, for which the “soluble fraction (log2)” value is -1.62.

On to “HMSHRVGDVVELTAVRMNDQGVFLDAGTGNTSDDILLHKHQMTSPVSVGDKVKVQLYLDAKNRITASMKL”, for which the “soluble fraction (log2)” value was -0.36.

Take “HMSIEIIEITSNSSPKNLSEIIDIDATQIVADLMGLGIMKAIDTPLENSEIEQLLEKYNLIAEFVE”: the “soluble fraction (log2)” value was -2.76.

Turning to “HMSILEIFGRNVQKYRKEQRLSQEKLAEYAGLHRTYIGMIERAEKNITLVNIEKIAKALNINLTKLLE”, the “soluble fraction (log2)” value was -4.25.

On to “HMSILTELDIGDKVEVVAGPFKGIQANITRIEPVRKEVTVILLDAPYQLPVTVDADYLKIIQKS”, for which the “soluble fraction (log2)” value was -1.63.

“HMSINISFEPADHLGKDVIFIRFPYDNEWIQRVRKLKGAKWSQSQRAWHVPDTEHYRTLFQLPQKI”: the “soluble fraction (log2)” value is -2.73.

Consider “HMSIQDLMNSKDLSGFKVEMLSNEDIVKYKSMLQSSGFSESQAEQLALQRGLPTSELIKLRTRISDVAVT”, for which the “soluble fraction (log2)” value was found to be 0.199.

Regarding “HMSIQELMNSKDLSSFKVEMLSDEDIAKYKGLLQNSGLTEAQAEQMALQRGLPSSELLKLKARLSGI”, the “soluble fraction (log2)” value worked out at 0.118.

As to “HMSIQREIILEVIKNNRTHPTAEEIYILVTKKEPKISRSTVYRNINILVEKGIIEKITIATGPDRYDY”, the “soluble fraction (log2)” value is -1.53.

In the case of “HMSISDEDFAKLLDFVKEKWDAGELDNAEDIKAAISEGEKEFGVSLDESTRTTLASALQQLN”, the “soluble fraction (log2)” value amounted to 0.274.

Regarding “HMSIYDAPIEDLKFSTRIFNSLKRADIHTVADLIAHSRDDLMKVRNLGATSLDELIEKLGTHGLQLADP”, the “soluble fraction (log2)” value was -0.412.

Take “HMSIYYQIYESLKKDLSNNLYKPGEKLPSENVLSKRFGVNRHTIRRSLQLLKNEGILFSKRGSGIIVHD”: the “soluble fraction (log2)” value is -3.45.

Take “HMSKDKEKRTREHVLGILKKYDKVMTDKAFTVFKKMIKDESILEMELIKLINFIGERKEIRSKDVLAVVTE”: the “soluble fraction (log2)” value was -0.504.

“HMSKEIQNILASLPSVDVLLKQIDPIYPHGKAKEATQQVVARLRESVVDGTRKTVIDQKEVIAMIHKQLEE”: the “soluble fraction (log2)” value was -0.293.

With “HMSKETTYEVLSLKGDEWQTDTIYSDRDEAIEAARNLHGDPHIDGAKVISEVYDDKTGGSKETTIFNT”, the “soluble fraction (log2)” value was 0.535.

As to “HMSKHAIQNELEKIEGIGKQTADSLLKEFKSVKKLRTLPLSEIEKVIGKSKATIVFEALHKDK”, the “soluble fraction (log2)” value is 0.00931.

In the case of “HMSKHATLLEALADLSVKLKPHSQLPSERALSEEYGVSRMTLRRAIDVLQARGYIYSVPSKGLFVSEP”, the “soluble fraction (log2)” value is -1.89.

As to “HMSKHATLLEALAELTVKLKPHTQLPSERQLSEDFGVSRMTLRRAIDVMQSRGYIYTVPSKGLYVSEP”, the “soluble fraction (log2)” value was -1.72.

Turning to “HMSKIRTFRVKTVAVDQAYQVLKDYSPIKISTESNAVIIDLDESKTPAEIAGYLEKNGIKVDNIEVIAESE”, the “soluble fraction (log2)” value amounted to 0.962.

Consider “HMSKISKENEQQVIQIVQTLLLNVQDKSLITTQILNEKINLAVSLDTKYKENLDRDYIIEELIRRYSVW”, for which the “soluble fraction (log2)” value is -2.93.

“HMSKKIVLPAAITVKKFSETLDMPLGTVISELMKNGILATINERIDFETASIIAQDLGYEVSEEV”: the “soluble fraction (log2)” value was -0.216.

With “HMSKKQEQALQSREKLLDAATALFAEHGYRDTSVQAIGEKAGVSRGSIFWHFGSKEGLLWAVVERAFTA”, the “soluble fraction (log2)” value was 0.303.

For “HMSKKTQKDEVVDLFLKTGNEPLHYKEISKKTGIIVHNVRRITGQNVVGKTDNPVFKRVSPGVYKLID”, the “soluble fraction (log2)” value was -0.72.

Take “HMSKLSVSSLSSPEVQNQLKAAGIDVNSRQYQVVMKDMMGALDGRAGYTTVSAIKNRMRQYNADGDY”: the “soluble fraction (log2)” value was 0.687.

In the case of “HMSKMVEMSQEKSREKVARVKIEIQKMLDRKERVTVSGLERATGFSNSFFYRNEEVNQAVKEAQLKQ”, the “soluble fraction (log2)” value was -0.138.

Turning to “HMSKNIRQQFLDVLPKTFDRNQYLETAKKLSINAKTAEGYIKKFVEANLLDHPKHNHYINLKKVEEVETK”, the “soluble fraction (log2)” value was -0.0919.

Take “HMSKNYYEILGVTPDVELSQLKAVYRRLVRKYHPDINPDGELIFKDITEAYEVLSDEKQRKQYDMINGF”: the “soluble fraction (log2)” value is -0.596.

Turning to “HMSKPILSFVDPEKDPSHYVKRYITEETYKDWFSEHFPDYTLYEGIGITQEEYRNIVNELTKP”, the “soluble fraction (log2)” value is -0.5.

For the sequence “HMSKPIYSELLREIRSGDVKELTLIPQRREVLVEYSDGRKATVSILANDQQVLRTAESAGVPLTVK”, the “soluble fraction (log2)” value is -0.0278.

For “HMSKPVFQTHSVRSADSATVFDVLQTLLAGTPDARIAIDPKTNAIVAWARPETQEVIAKSIMEMEG”, the “soluble fraction (log2)” value was 0.0746.

Take “HMSKQIEVPDVTDMTVSDAIDVLQDKGFVVSDEQKEVASSEIEEGRVVRTSPAVGSKRKDGTVVTLYVSI”: the “soluble fraction (log2)” value was determined as 0.353.

Regarding “HMSKTEEIAYTTFVKYLENKDIEEVYLGNNAKIKVILKDGREMITDNPRTADFKKDLLLHDIKVVEKT”, the “soluble fraction (log2)” value is -0.0889.

Turning to “HMSKYGIAYSEVLEILKHIPIEDYNKIPRNEIELFETYADKDFTFNYDSSKTLEEQNVSNITKGIIIL”, the “soluble fraction (log2)” value was -0.56.

“HMSLEEQNGAKDRQVEAYELLLKAQRALDQEDTAGFQAAMKDLEPLSSQLDAQGQTLYHELLPFVS”: the “soluble fraction (log2)” value is -0.232.

In the case of “HMSLGSNISRLRAEKHLSQGDLAEALDVSRQSVSKWETDGSVPDLDKLVKLSRIFGVTLDELVTGTP”, the “soluble fraction (log2)” value was -0.039.

“HMSLIHEQSLKEIRIFINNLPESLRTAFTLREQDGLSYEEISKITDTPIGTVRSRIFRARESILEHINEEL”: the “soluble fraction (log2)” value was -2.25.

In the case of “HMSLLTPLEEARIVIEELIIPQKLTLDLLPQNSQIRKLQHEIINHYRLKGISIGDGKNRRVRIYS”, the “soluble fraction (log2)” value is -0.204.

For “HMSLMHEESLKNIRRFINSLPESLRTAFTLREQDGLSYEEIGVITETPIGTVRSRIFRAREAILEHIKKEL”, the “soluble fraction (log2)” value was -2.39.

For “HMSLMLYVEDVDTAFKKAIELGATEIRPVHDQFYGDRAGTLQDPFGHIWIIGTHKEDVSDEELNNRIGNI”, the “soluble fraction (log2)” value came to 0.104.

“HMSLPNNLIEQLQDPEPKARRRAVRRLAATRDPSAIPLLRNVYLQDGDDRVRDAAEAALVQFRAMQHN”: the “soluble fraction (log2)” value was -0.112.

Take “HMSLPTYVQISEAIARRITAGQWLDGERLPPERTMAAEFGVAVGTLRKALSRLQDQKLLRRLQGSGNYINI”: the “soluble fraction (log2)” value was -1.67.

Turning to “HMSLREKNKARTRTAILNAARDLAKQGQWDAITTRQIADAAGVSYQTLYNYYPSKASILVEMLL”, the “soluble fraction (log2)” value is -2.03.

Turning to “HMSLSDDIAQTLRQLGFDRDVSETLANDVLPAMPTRQDVIDLLGTLGIEKHVAADFANFVVLN”, the “soluble fraction (log2)” value was -0.964.

Take “HMSLSEYLSAPVLEGQRNHALFSAVMQAREQGWDEWQIRTTIGAKAEADGLRHAEIAATIRSAMSREITP”: the “soluble fraction (log2)” value is -0.314.

Take “HMSLSIKINHESVGLRLDQFLQEHYYKQQSRSYVQHAIKEGYILVNGQSVKNGYMLKLDDLIELEAI”: the “soluble fraction (log2)” value is -4.5.

Take “HMSLSNMIGKNIQWTHVTKTKDAEGNPKTNSETFAGNVRGVKVLNGKPMVVAQDAKGKLHEVEVSEIEAIA”: the “soluble fraction (log2)” value was determined as 0.0953.

Regarding “HMSLTEDELFHALTIYANREGINIGATELKYLLTHYARNLGKLIELINQVSQAATMQKKPITIPLIKHS”, the “soluble fraction (log2)” value was -0.411.

In the case of “HMSLTGFYNLTFKQADRLSVIDEAGEEVYKQAIAMGSTTKTIDLSALNAGVYFIRIYNGEVIAQEKIVLN”, the “soluble fraction (log2)” value was -0.933.

“HMSLTYTGKFILNHNNIDQSSFNINIYLVNKQTIIQITKPFYGNVLNIKFNEENDLIISPKQFS”: the “soluble fraction (log2)” value is -0.369.

On to “HMSMDPYTVLGVNKSSTDSQIKNAYKNLAKQHHPDRGGNEAKFKEISTAYEQIKTAEKRQQYDMSQQF”, for which the “soluble fraction (log2)” value was determined as 0.604.

Consider “HMSMFAQQLKDLRKKIPGLTQTDMAKKLGIAKTTYASYEQGKRTPDIETQNKIADFFNVSLDYLHG”, for which the “soluble fraction (log2)” value is -0.302.

On to “HMSMFSEILRTLRKAKGLTQRELAGHLGVTQQMVAKWEKGQSTPGPDQLTRMAELLEVSTDTLLGR”, for which the “soluble fraction (log2)” value was -0.366.

As for “HMSMNSWFVEKERDNTRIDKFLNEQMADISRSYIQKLIKDDLVTVDLRPVKANYKVKEGDRVEVTLPEPV”, the “soluble fraction (log2)” value worked out at 0.000708.

Consider “HMSMPTITLQHYKRGSHYYASIIETFRDPVTRKNSSRTLEALGDISEKMKEDPNYLQSLKDRVKALRSD”, for which the “soluble fraction (log2)” value was -0.899.
